This assay concerns the target recombinant human FcγRIIa (131H)-glutathione-S-transferase (human) (UniProt P12318). Description: AlphaScreen competition: the antibody inhibits binding of FcγRIIa (131H)-GST to biotinylated human IgG1 (m6). In general terms: In Alpha technology, singlet oxygen from a donor bead excites a nearby acceptor bead.

For the substance “romosozumab PARG (SEQ ID NO: 8) C-terminal variant (antibody)”, the IC50 (read off the curve) stood at 20 nM.
Then wild-type romosozumab (antibody), with 100 nM.

For the origin of these results see patent US20230015713A1.
